Reference: publication PMC3667720

Target: β-actin (human (endogenous in MDA-MB-231)) (UniProt P60709)
Experiment: FRET or BRET

FRET efficiency (control siRNA, 0 min EGF): 4.34%
FRET efficiency (β1 integrin siRNA, 0 min EGF): 3.85%
increase in FRET efficiency 3 min after EGF against 0 min (control cells): 40%
Substance: cofilin (from UniProt P23528 1-166) (natural protein)
